US9766239
Where no end group is shown, it is not given here. scaffold 1571 = not defined here

Experiments:
[1] = target: Norovirus surrogate virus-like particle, type GII.4 Minerva strain (human Norovirus GII.4 Minerva strain); assay: SPR, unpurified peptide against nVLP GII.4
[2] = target: Norovirus surrogate virus-like particle, type GII.4 Minerva strain (human Norovirus GII.4 Minerva strain); assay: direct ELISA on purified GII.4 nVLP
[3] = target: Norovirus surrogate virus-like particle, type GII.4 Minerva strain (human Norovirus GII.4 Minerva strain); assay: capture of VLP from a dilute solution by the synbody
[4] = target: GII.4 Sydney# Norovirus VLP (Norovirus GII.4 Sydney strain); assay: as above

| Binder | % Stability [1] | Avg Binding (Spot 1/2) [1] | koff [1] | Kd [2] | Enrichment Factor from 1 ng/µL solution [3] | Enrichment Factor from 1 ng/µL solution [4] |
| --- | --- | --- | --- | --- | --- | --- |
| RWVRVKLRSHTKLNRYIGSC [Mut Peptide-94] | 63% | 358 | 0.00294 s⁻¹ | – | – | – |
| VWARKNNKRKKDFNAGWGSC(scaffold 1571) (designed binder, reading uncertain; also: two peptides coupled by Cys to scaffold 1571 (dimer)) [nVLP53-53-1571] | – | – | – | 1 nM | – | – |
| DWARKNNKRKMNFNLGWGSC [Mut Peptide-60] | 44% | 134 | 0.00487 s⁻¹ | – | – | – |
| AWARSNNSRSKAFNLGWGSC(scaffold 1571) (designed binder, reading uncertain; also: two peptides coupled by Cys to scaffold 1571 (dimer)) [nVLP81-81-1571] | – | – | – | 3 nM | – | – |
| VWARKNNSRSKDFNAGWGSC(scaffold 1571) (designed binder, reading uncertain; also: two peptides coupled by Cys to scaffold 1571 (dimer)) [nVLP55-55-1571] | – | – | – | 9 nM | – | – |
| RWVRVKLRSHTELNRYIGSC [Mut Peptide-93] | 60% | 274 | 0.00332 s⁻¹ | – | – | – |
| SWARSNNKRSKAFNLGWGSC(scaffold 1571) (designed binder, reading uncertain; also: two peptides coupled by Cys to scaffold 1571 (dimer)) [nVLP78-78-1571] | – | – | – | 5 nM | – | – |
| RWHRVKLRSHTELNRYIGSC [Mut Peptide-92] | 57% | 230 | 0.00355 s⁻¹ | – | – | – |
| RWVRVKLRSHTELNRYIGSC(scaffold 1571) (designed binder, reading uncertain; also: two peptides coupled by Cys to scaffold 1571 (dimer)) [nVLP93-93-1571] | – | – | – | 4 nM | 10 | 3 |
| AWARSNNSRSKAFNLGWGSC [Mut Peptide-81] | 45% | 128 | 0.00455 s⁻¹ | – | – | – |
| RWHRVKLRSHTELNRYIGSC(scaffold 1571) (designed binder, reading uncertain; also: two peptides coupled by Cys to scaffold 1571 (dimer)) [nVLP92-92-1571] | – | – | – | 3 nM | 3 | – |
| RWVRVKLRSHTKLNRYIGSC(scaffold 1571) (designed binder, reading uncertain; also: two peptides coupled by Cys to scaffold 1571 (dimer)) [nVLP94-94-1571] | – | – | – | 1 nM | 7 | 3 |
| SWARSNNKRSKAFNLGWGSC [Mut Peptide-78] | 46% | 169 | 0.00431 s⁻¹ | – | – | – |
| DWARKNNKRKMNFNLGWGSC(scaffold 1571) (designed binder, reading uncertain; also: two peptides coupled by Cys to scaffold 1571 (dimer)) [nVLP60-60-1571] | – | – | – | 2 nM | – | – |
| VWARKNNKRKKDFNAGWGSC [Mut Peptide-53] | 51% | 189 | 0.00408 s⁻¹ | – | – | – |
